For one data set, the target named is CoV-2 Nsp13 helicase (SARS-CoV-2, UniProt P0DTD1 5325-5925). Briefly: fluorescence anisotropy; 10-42 C; no significant change. The following applies: protein: recombinant; tags: N-terminal SUMO tag removed with SUMO protease; label: 3'-6-FAM on strand 1; 5' overhang 22 nt, 21 bp. In general terms: Fluorescence polarisation rises when a labelled molecule tumbles more slowly, as on binding a larger partner.

For the next data set, the target named is CoV-2 N (nucleocapsid) (SARS-CoV-2, UniProt P0DTC9 1-419). Put plainly: fluorescence anisotropy; 50 mM NaCl, no Mg2+, no ATP; FP: 25 mM Tris-HCl pH 7.6, 50 mM NaCl, no Mg2+, 5 nM labelled nucleic acid, 5 min; temperature not stated; Kd from Hill fits (values not in the text). The following applies: protein: recombinant; tags: His6; chain copies: 2; label: 3'-6-FAM on strand 1; 5' overhang 22 nt, 21 bp.

B1: 5'D/D-OhS22D21 (dsDNA)
DNA 1: CTGTAGGAATGTGAAATAAAAACGATGTTTTATTTACATTGTA
DNA 2: TACAATGTAAATAAAACATCG
For the molecule B1, the binding result in the data set with CoV-2 Nsp13 helicase and in the data set with CoV-2 N (nucleocapsid) was “binds” in each case.

The record behind these values is article PMC12702239, “The regulatory mechanisms of SARS-CoV-2 N protein helicase and its annealing activity”.
